The results in this text go back to US20190248889A1 (Genentech, published 2019).

The target of the assay is T1, human LgR5 (human, UniProt O75473 22-907).
T1 construct: This one molecule is used for transfected 293 cells and for endogenous LgR5 in human cells and tissues; also called leucine-rich repeat-containing G protein-coupled receptor 5
T1 sequence: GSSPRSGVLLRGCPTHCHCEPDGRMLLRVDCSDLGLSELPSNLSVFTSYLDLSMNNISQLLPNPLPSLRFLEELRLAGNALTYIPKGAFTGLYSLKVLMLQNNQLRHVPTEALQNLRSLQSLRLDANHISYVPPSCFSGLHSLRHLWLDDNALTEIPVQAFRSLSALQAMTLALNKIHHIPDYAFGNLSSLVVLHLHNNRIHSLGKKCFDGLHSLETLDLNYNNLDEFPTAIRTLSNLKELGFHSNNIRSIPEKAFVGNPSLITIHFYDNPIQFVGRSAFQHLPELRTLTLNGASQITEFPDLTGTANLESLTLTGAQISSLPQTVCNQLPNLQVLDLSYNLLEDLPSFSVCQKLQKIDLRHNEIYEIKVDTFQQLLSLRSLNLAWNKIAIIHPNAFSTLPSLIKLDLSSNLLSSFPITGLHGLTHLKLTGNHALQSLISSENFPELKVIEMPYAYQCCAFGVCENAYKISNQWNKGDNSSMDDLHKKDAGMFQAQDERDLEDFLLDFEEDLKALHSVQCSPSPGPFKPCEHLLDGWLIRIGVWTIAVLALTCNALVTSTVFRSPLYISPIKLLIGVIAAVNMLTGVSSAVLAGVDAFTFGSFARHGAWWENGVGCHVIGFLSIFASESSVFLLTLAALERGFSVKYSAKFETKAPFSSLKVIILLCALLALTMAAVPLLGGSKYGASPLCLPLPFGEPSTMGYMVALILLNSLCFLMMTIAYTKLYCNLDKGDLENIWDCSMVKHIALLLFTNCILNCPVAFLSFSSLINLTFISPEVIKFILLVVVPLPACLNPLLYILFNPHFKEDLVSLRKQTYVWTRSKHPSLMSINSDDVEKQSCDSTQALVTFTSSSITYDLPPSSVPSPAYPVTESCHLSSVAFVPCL
As to the kind of experiment: IHC on SW403 colon cancer cell line. On the procedure:
Staining with antibody LGR5.26-1 was compared to staining with antibody LGR5.1-12 in CXF233 (human colon tumor model; Oncotest) xenograft tumors and in various colon cancer cell lines. Immunohistochemistry (IHC) for Lgr5 was performed on a Dako Universal Autostainer (Dako, Carpinteria, Calif.). Briefly, formalin-fixed, paraffin-embedded tumor tissue were deparaffinized and antigen unmasking was performed in a PT Module (Thermo Scientific, Kalamazoo, Mich.) with Target Retrieval pH 6 (Dako) at 99° C. for 20 minutes. Endogenous peroxidase was inhibited with treatment of 3% H202 in PBS for 4 minutes and endogenous biotin was blocked using the Avidin/Biotin blocking kit (Vector Labs, Burlingame, Calif.). Endogenous IgGs were blocked using 10% donkey serum in 3% BSA/PBS and primary antibody to Lgr5 (LGR5.1-12 or 26-1) was incubated at 4 μg/ml for 60 minutes at room temperature. […] Antibody binding was detected with Metal enhanced DAB (Pierce Rockford, Ill.) for 5 minutes at room temperature and sections were counterstained with Mayer's Hematoxylin (Rowley Biochemical, Danvers, Mass.).
Each cell line was also characterized by lgr5 gene expression using RNAseq data into the following levels of expression: none, very low, low, moderate, and high. In addition, LgR5 levels were determined in the cell lines by IHC, substantially as described above.

B1: antibody LGR5.1-12 (antibody, V domains shown)
VH: QSLEESGGGLVQPEGSLTLTCTASGFSFSRTYWICWDRQAPGKGLEWIACIYAGGSDNTYYASWAKGRFTISKTSSTTVTLQVTSLTAADTATYFCARYYAGSSEYFNLWGPGTLVTVSS
VL: AYDMTQTPASVEVAVGGTVTIKCQASQSIGSNLAWYQQKPGQPPKLLIYGASNLASGVSSRFKGSGSGTEFTLTISDLECADAATYYCQTTYGSSSDGFFWTFGGGTEVVVKG
notes: also called αLgR5.1-12; antibody 1-12
Consider B1, for which the binding result is on record as “binds”.

B2: antibody LGR5.26-1 (antibody, V domains shown)
VH: QSLEESGGDLVKPGGTLTLTCTASGIDFSYYSYMCWVRQAPGKGLEWIACIYAGTSGSTYYASWAKGRFTISKTSSTTVTLQMISLTAADTATYFCARSYYTFGVNGYAWDLWGPGTLVTVSS
VL: AFELTQTPSSVEAAVGGTVTIKCQASQSISVGLAWYQQKPGQPPKLLIYKASTLASGVPSRFKGSRSGTEFTLTISDLECADAATYYCQSYYDSSTTANVFGGGTEVVVKG
notes: also called αLgR5.26-1; antibody 26-1
With B2, the binding result is recorded as “binds”.
